Assay results published in article PMC2248580.

Target: human activated blood coagulation factor X (FXa) (human)
Assay: SPR; […]; 37°C; HBS (10 mM Hepes, 150 mM NaCl, 5 mM CaCl2, 0.005% P20, pH 7.4); Langmuir fit; […]

“Myotoxin II from Bothrops asper venom (from UniProt P24605 17-137) (natural protein)” gave a Kd of 1.8 nM, a koff of 0.0178 s⁻¹ and a kon of 1.04e+07 M⁻¹ s⁻¹.
